Data from patent US20240360223A1 (DRAGONFLY THERAPEUTICS, published 2024).
“And” between values parts separate entries of the source, which are not always exact repeats. Equal entries are not always repeated.

Columns and labels:
human CD64 [1] = target: T1, human CD64 (human, UniProt P12314 16-288, limits assumed); experiment: SPR
T1 construct: also called FcγRI
Protocol: Binding analyses as described in this Example were performed using SPR, as described in Example 4.

[2] = target: T2, cynomolgus NKG2D (recombinant mFc-tagged dimer) (cynomolgus, UniProt P61252 78-216); experiment: SPR, average
T2 construct: also called cyno NKG2D
T2 sequence (looked up): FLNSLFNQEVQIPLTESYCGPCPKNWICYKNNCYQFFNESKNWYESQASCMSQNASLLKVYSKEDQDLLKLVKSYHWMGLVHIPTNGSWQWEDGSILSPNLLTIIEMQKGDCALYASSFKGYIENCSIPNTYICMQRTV

cynomolgus CD16 [3] = target: T3, cynomolgus CD16 (cynomolgus, UniProt Q8SPW2 17-208, limits assumed); experiment: SPR, average
T3 construct: also called Cyno CD16; cynomolgus FcγRIII

human CD16a V158 [4] = target: T4, human CD16a V158 (human, UniProt P08637 17-208); experiment: SPR, kinetic fit
T4 construct: also called hCD16aV; hCD16a V158

human CD16a F158 [5] = target: T5, human CD16a F158 (human, UniProt P08637 17-208); experiment: SPR, steady state
human CD16a V158 [6] = target: T4, human CD16a V158; experiment: SPR, summary table
human CD16a F158 [7] = target: T5, human CD16a F158; experiment: SPR, summary table
cynomolgus CD16 [8] = target: T3, cynomolgus CD16; experiment: SPR, summary table
human CD64 [9] = target: T1, human CD64; experiment: SPR, summary table
human CD32a H131 = target: T6, human CD32a H131 (human, UniProt P12318 36-218, limits assumed); experiment: SPR, summary table
T6 sequence (looked up): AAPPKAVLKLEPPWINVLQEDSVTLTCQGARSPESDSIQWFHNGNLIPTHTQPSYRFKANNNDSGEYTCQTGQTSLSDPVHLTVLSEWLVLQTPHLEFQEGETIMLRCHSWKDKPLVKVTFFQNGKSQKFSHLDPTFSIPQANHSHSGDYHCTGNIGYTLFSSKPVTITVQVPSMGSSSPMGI

human CD32a R131 [10] = target: T7, human CD32a R131 (human, UniProt P12318 36-218, limits assumed); experiment: SPR, summary table
T7 construct: also called FcγRIIa R131
T7 sequence (looked up): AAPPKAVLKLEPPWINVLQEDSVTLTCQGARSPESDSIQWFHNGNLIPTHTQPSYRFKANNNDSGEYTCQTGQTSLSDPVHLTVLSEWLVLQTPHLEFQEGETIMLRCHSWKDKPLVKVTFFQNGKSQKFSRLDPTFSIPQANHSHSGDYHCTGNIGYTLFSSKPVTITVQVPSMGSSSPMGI

human CD32b = target: T8, human CD32b (human, UniProt P31994 46-217, limits assumed); experiment: SPR, summary table
T8 construct: also called FcγRIIb
T8 sequence (looked up): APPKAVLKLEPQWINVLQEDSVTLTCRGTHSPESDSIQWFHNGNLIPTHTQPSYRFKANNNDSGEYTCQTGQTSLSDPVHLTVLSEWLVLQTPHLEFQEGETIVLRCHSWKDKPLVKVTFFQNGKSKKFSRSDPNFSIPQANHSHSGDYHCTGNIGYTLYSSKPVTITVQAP

human CD16b = target: T9, human CD16b (human, UniProt O75015 17-200, limits assumed); experiment: SPR, summary table
T9 construct: also called FcγRIIIb

[11] = target: T2, cynomolgus NKG2D (recombinant …); experiment: SPR, 1:1 kinetic fit
Description: (§1) NKG2D is a native dimer, therefore recombinant mFc-tagged NKG2D dimer was used for this experiment. Two different fits were utilized to obtain the equilibrium affinity data: steady state affinity fit and kinetic fit.

[12] = target: T2, cynomolgus NKG2D (recombinant …); experiment: SPR, steady state fit
Description: as §1

human CD32a R131 [13] = target: T7, human CD32a R131; experiment: SPR, steady state, average
[14] = target: T10, human NKG2D (recombinant mFc-tagged dimer) (human, UniProt P26718 78-216); experiment: SPR, after 4 weeks at 40 °C
T10 construct: also called hNKG2D
T10 sequence (looked up): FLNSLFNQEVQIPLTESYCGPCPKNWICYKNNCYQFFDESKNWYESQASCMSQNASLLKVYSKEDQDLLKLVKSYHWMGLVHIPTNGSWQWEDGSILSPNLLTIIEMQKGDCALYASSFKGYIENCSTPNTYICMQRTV

human CD16a V158 [15] = target: T4, human CD16a V158; experiment: SPR, after 4 weeks at 40 °C
[16] = target: T11, human BAFF-R expressed on cells (human, UniProt Q96RJ3 1-184); experiment: flow cytometry, Rs4;11 cells
T11 construct: Cell surface BAFF-R, endogenous on B cell lines and primary B cells or overexpressed on isogenic CHO cells; also called hBAFF-R; hBAFF-R-CHO

[17] = target: T10, human NKG2D (recombinant mFc-tagged …); experiment: SPR, steady state, after 4 weeks at 40 °C
[18] = target: T12, cynomolgus monkey BAFF-R expressed on cells (cynomolgus monkey); experiment: flow cytometry, cynomolgus BAFF-R CHO cells
T12 construct: whole, on cells; also called cBAFF-R; cynoBAFF-R
Description: Isogenic cell lines overexpressing human and cynomolgus BAFF-R on the backbone of CHO cell line were designed.

cynomolgus FcRn = target: T13, cynomolgus FcRn (cynomolgus, UniProt Q8SPV9 24-297; Q8SPW0 21-119); experiment: SPR, pH 6.0, steady state; pH 6.0; first replicate
T13 construct: also called Cyno FcRn
T13 sequence (Q8SPV9 24-297 limits assumed, chain 1 of 2): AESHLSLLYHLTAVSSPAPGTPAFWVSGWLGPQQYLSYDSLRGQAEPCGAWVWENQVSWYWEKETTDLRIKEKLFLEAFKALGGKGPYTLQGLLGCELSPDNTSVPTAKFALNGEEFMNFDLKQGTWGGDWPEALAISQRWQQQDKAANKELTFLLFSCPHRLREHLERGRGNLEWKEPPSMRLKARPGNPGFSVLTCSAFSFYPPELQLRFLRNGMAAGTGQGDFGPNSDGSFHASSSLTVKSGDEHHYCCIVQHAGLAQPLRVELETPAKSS
T13 sequence (Q8SPW0 21-119 limits assumed, chain 2 of 2): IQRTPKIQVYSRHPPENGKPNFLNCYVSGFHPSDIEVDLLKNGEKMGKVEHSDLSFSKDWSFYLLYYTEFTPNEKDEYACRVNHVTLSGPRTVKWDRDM

T1 sequence (P12314 16-288 limits assumed): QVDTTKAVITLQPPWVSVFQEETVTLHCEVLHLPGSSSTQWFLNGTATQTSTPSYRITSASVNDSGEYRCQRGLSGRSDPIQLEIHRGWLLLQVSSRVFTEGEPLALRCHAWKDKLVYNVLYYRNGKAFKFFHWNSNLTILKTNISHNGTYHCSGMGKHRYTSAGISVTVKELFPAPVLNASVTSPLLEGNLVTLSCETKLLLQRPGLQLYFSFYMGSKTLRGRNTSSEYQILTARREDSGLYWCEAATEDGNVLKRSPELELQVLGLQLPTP
T4 sequence (P08637 17-208 F176V limits assumed): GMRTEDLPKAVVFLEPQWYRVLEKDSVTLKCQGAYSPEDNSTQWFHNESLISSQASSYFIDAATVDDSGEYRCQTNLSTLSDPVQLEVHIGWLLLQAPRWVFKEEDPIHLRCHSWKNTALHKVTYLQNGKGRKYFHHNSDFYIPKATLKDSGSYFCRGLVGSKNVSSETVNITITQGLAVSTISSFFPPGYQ
T3 sequence (Q8SPW2 17-208 limits assumed): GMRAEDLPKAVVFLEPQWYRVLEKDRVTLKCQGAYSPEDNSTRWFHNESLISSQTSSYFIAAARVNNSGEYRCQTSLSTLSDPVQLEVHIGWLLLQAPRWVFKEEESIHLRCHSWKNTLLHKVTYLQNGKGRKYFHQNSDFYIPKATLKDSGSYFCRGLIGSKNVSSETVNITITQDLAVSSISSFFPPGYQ
T5 sequence (P08637 17-208 limits assumed): as the sequence (P08637 17-208 F176V limits assumed) above, with V160F counted along it
T9 sequence (O75015 17-200 limits assumed): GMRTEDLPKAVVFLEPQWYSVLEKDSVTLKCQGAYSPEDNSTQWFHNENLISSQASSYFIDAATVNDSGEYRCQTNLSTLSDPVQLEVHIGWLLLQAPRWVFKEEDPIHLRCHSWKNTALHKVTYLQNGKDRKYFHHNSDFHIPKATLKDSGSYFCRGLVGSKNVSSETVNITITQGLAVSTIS

- Kd (human CD64 [1]): 2.9 nM and 3.1 nM and 3.4 nM and 3.2 nM
- koff (human CD64 [1]): 0.00022 s⁻¹ and 0.00023 s⁻¹
- kon (human CD64 [1]): 77000 M⁻¹ s⁻¹ and 73000 M⁻¹ s⁻¹ and 69000 M⁻¹ s⁻¹ and 72000 M⁻¹ s⁻¹
- koff [2]: 0.11 s⁻¹
- kon [2]: 200000 M⁻¹ s⁻¹
- Kd (cynomolgus CD16 [3]): 271 nM
- koff (cynomolgus CD16 [3]): 0.021 s⁻¹
- kon (cynomolgus CD16 [3]): 76000 M⁻¹ s⁻¹
- Kd (human CD16a V158 [4]): 131 nM (2×) and 134 nM and 122 nM
- Kd (human CD16a F158 [5]): 1330 nM and 1260 nM and 1370 nM and 1430 nM
- Kd (human CD16a V158 [6]): 129 nM
- Kd (human CD16a F158 [7]): 1350 nM
- Kd (cynomolgus CD16 [8]): 271 nM
- Kd (human CD64 [9]): 3.2 nM
- Kd (human CD32a H131): 1000 nM
- Kd (human CD32a R131 [10]): 1400 nM
- Kd (human CD32b): 5900 nM
- Kd (human CD16b): 6900 nM
- Kd [11]: 498 nM and 516 nM and 528 nM and 525 nM
- Kd [12]: 501 nM and 516 nM and 535 nM and 530 nM
- Kd (human CD32a R131 [13]): 1400 nM
- koff [14]: 0.1 s⁻¹
- kon [14]: 210000 M⁻¹ s⁻¹
- Kd (human CD16a V158 [15]): 145 nM
- koff (human CD16a V158 [15]): 0.016 s⁻¹
- kon (human CD16a V158 [15]): 120000 M⁻¹ s⁻¹
- EC50 [16]: 0.09 nM
- Max FOB [16]: 4 fold over background
- Kd [17]: 522 nM
- EC50 [18]: 0.9 nM
- Max FOB [18]: 141 fold over background
- Kd (cynomolgus FcRn): 1000 nM
B1: AB1424/AB1612 F3′ TriNKET (bispecific antibody, human IgG1, kappa)
chain: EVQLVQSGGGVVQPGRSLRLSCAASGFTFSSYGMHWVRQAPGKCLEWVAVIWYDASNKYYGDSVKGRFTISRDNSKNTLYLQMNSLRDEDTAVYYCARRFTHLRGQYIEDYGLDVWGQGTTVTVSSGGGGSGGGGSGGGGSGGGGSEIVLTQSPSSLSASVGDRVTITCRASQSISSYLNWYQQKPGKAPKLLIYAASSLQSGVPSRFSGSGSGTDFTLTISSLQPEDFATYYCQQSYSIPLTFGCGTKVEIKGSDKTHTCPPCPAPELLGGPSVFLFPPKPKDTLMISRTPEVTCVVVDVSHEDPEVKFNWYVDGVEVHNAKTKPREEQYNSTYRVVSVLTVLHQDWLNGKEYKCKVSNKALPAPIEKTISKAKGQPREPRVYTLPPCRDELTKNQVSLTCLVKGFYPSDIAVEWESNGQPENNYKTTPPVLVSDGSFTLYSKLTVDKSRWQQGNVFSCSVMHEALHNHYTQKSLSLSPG
heavy: EVQLVESGGGLVKPGGSLRLSCAASGFTFSSYSMNWVRQAPGKGLEWVSSISSSSSYIYYADSVKGRFTISRDNAKNSLYLQMNSLRAEDTAVYYCARGAPIGAAAGWFDPWGQGTLVTVSSASTKGPSVFPLAPSSKSTSGGTAALGCLVKDYFPEPVTVSWNSGALTSGVHTFPAVLQSSGLYSLSSVVTVPSSSLGTQTYICNVNHKPSNTKVDKKVEPKSCDKTHTCPPCPAPELLGGPSVFLFPPKPKDTLMISRTPEVTCVVVDVSHEDPEVKFNWYVDGVEVHNAKTKPREEQYNSTYRVVSVLTVLHQDWLNGKEYKCKVSNKALPAPIEKTISKAKGQPREPQVCTLPPSRDELTENQVSLTCLVKGFYPSDIAVEWESNGQPENNYKTTPPVLDSDGSFFLYSWLTVDKSRWQQGNVFSCSVMHEALHNHYTQKSLSLSPG
light: DIQMTQSPSSVSASVGDRVTITCRASQGISSWLAWYQQKPGKAPKLLIYAASSLQSGVPSRFSGSGSGTDFTLTISSLQPEDFATYYCQQGVSFPRTFGGGTKVEIKRTVAAPSVFIFPPSDEQLKSGTASVVCLLNNFYPREAKVQWKVDNALQSGNSQESVTEQDSKDSTYSLSSTLTLSKADYEKHKVYACEVTHQGLSSPVTKSFNRGEC
notes: Chain S: anti-BAFF-R scFv-CH2-CH3; chain H: anti-NKG2D VH-CH1-CH2-CH3; chain L: anti-NKG2D VL-CL; also called AB1612-002
